From PMC2736567 come the findings set out here.

The target of this experiment is endogenous GRB2 (human (endogenous in HEK-293T)) (UniProt P62993).
Chain of UniProt P62993 (P62993 whole entry): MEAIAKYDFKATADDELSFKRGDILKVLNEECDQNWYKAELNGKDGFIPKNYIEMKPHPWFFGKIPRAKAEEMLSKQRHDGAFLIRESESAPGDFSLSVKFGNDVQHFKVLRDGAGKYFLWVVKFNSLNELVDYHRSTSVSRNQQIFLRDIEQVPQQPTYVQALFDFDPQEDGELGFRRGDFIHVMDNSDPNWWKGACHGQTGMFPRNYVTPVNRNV

The substance “GST-tagged hPIV3-C (full-length) (from UniProt P06165 1-199) (natural protein)” registered an Elk1 trans-reporter after EGF in HEK-293T expressing hPIV3-C without a tag of 14 fold.
